This is an account of results in paper PMC11104609, “Discovery of allosteric regulators with clinical potential to stabilize alpha-L-iduronidase in mucopolysaccharidosis type I” (PLOS ONE, 2024).

Assay [1] has as its target T1, IDUA (Homo sapiens, UniProt P35475).
T1 sequence (P35475 28-653): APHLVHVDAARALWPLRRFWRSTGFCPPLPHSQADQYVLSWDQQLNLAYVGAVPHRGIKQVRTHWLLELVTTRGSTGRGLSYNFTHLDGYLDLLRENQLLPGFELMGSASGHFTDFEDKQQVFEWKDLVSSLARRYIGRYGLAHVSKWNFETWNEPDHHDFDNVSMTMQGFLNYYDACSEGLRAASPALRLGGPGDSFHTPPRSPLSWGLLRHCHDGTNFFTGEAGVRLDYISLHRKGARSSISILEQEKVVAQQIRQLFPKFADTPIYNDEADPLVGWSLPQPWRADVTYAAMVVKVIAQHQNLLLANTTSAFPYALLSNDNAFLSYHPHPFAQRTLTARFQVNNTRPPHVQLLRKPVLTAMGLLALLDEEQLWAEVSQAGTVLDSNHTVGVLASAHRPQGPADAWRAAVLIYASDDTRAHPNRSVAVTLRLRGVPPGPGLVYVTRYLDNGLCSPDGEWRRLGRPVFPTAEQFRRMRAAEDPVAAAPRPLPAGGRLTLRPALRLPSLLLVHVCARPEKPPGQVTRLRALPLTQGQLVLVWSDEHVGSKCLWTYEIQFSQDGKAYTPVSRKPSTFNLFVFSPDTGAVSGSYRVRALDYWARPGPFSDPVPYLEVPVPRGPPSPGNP
As to the kind of experiment: Denaturation prevention (isothermal denaturation) assay with SYPRO Orange. The assay is classed as binding. On the set-up: purchased R&D Systems. The conditions noted are these: pH 7.0 and 37 °C, no compound. The procedure: The capacity of the compounds to stabilize IDUA in neutral pH buffer was assessed using the denaturation prevention assay. Briefly, rhIDUA (obtained from the Institute of Biotechnology and Biomedicine in the UAB, Bellaterra, Spain) was combined to a final concentration of 1 μM with 5X SYPRO Orange and 30 μM of the corresponding compound in a final reaction volume of 25 μL in 100 mM Hepes, 20 mM MgCl2, pH 7 buffer, or 25 mM NaAc, 150 mM NaCl, pH 5.2. Reactions were incubated at 37 °C, and SYPRO Orange fluorescence intensity was monitored at the indicated time points using Glomax® Discover microplate reader (Promega, Madison, WI, USA). Two independent experiments in triplicate at one concentration (30μM) of compound #18 (GT-01803) were performed for denaturation prevention assays.

Assay [2] has as its target T1, IDUA. As to the kind of experiment: IDUA enzymatic activity in patient-derived fibroblasts after rhIDUA with or without compound (4-MUI substrate). The assay is classed as cell-based. On the set-up: Institute of Biotechnology and Biomedicine, Autonomous University of Barcelona (UAB), Bellaterra, Spain. The conditions noted are these: rhIDUA 1.25 nM alone. The procedure:
Fibroblasts derived from Hurler (GM00798) and Hurler/Scheie patients (GM02845, GM00512, GM01898, GM00963) were purchased from Coriell (Camden, NJ). Fibroblasts were cultured in Dulbecco’s modified Eagle’s medium (DMEM, Gibco) supplemented with 10% inactivated fetal bovine serum (FBS, Gibco) and 1% penicillin-streptomycin (Thermo Fisher Scientific, Waltham, MA, USA) (growth medium) at 37 °C under 5% CO2. The effect of the protein and/or compound in enhancing IDUA enzymatic activity was evaluated as follows: The specified patient-derived fibroblasts were seeded at 4x10^4 cells per well in 12-well cell culture plates in growth medium. Subsequently, cells were incubated with indicated dose of rhIDUA (obtained from the Institute of Biotechnology and Biomedicine in the UAB, Bellaterra, Spain) in the absence or presence of the compound #18 (GT-01803) for the specified incubation times at 50 μM. After incubation, cells were washed with PBS and detached using Trypsin-EDTA solution (Sigma Aldrich, St. Louis, MO, USA) to prepare cell pellets. The pellets were stored at -80 °C until activity assays were performed. IDUA activity in cell lysates was measured using 4-methylumbelliferyl IDUA substrate (4-MUI, Glycosynth Ltd., #44076, Warrington, UK). Briefly, lysates were resuspended in 120 μL of 0.9% NaCl containing 0.01% Triton X-100 lysis buffer to promote membrane disruption. Next, the cell suspension was sonicated and centrifuged to pellet insoluble materials. Then, 25 μL of lysates were mixed with 25 μL of 200 μM 4-MUI substrate solution in 0.4 M sodium formate, pH 3.5, 0.2% Triton X-100 buffer and incubated for 60 mins at 37 °C. The reaction was stopped by adding 200 μL of 0.5 M Glycine/0.3 M NaOH buffer, pH 10. The liberated 4-methylumbelliferone (4-MU) was measured on a Glomax® Discover microplate reader with excitation at 340 nm and emission at 460 nm. Protein quantification was determined using Pierce BCA Protein Assay Kit (Thermo Fisher Scientific, Waltham, MA, USA). Measurements were interpolated in a 4-MU standard curve and normalised by protein quantity.
For Fig 6A, rhIDUA concentrations of 0.187, 0.375 and 1.25 nM were tested in GM02845 fibroblasts over a 96-hour period, both in the presence and absence of the compound #18 (GT-01803) at 50 μM. In Fig 6B, 1.25 nM of rhIDUA was evaluated in GM02845, GM00798, GM00512, and GM00963 fibroblasts for 96h, with and without the compound #18 (GT-01803) at 50 μM. In Fig 6C, a concentration of 1.25 nM of the protein was applied to fibroblasts for 4, 8, 24 and 96h, with and without the compound #18 (GT-01803) at 50 μM.

B1: rhIDUA: recombinant human alpha-L-iduronidase, enzyme replacement therapy protein (protein, UniProt P35475 28-653, looked up)
Alpha-L-iduronidase: APHLVHVDAARALWPLRRFWRSTGFCPPLPHSQADQYVLSWDQQLNLAYVGAVPHRGIKQVRTHWLLELVTTRGSTGRGLSYNFTHLDGYLDLLRENQLLPGFELMGSASGHFTDFEDKQQVFEWKDLVSSLARRYIGRYGLAHVSKWNFETWNEPDHHDFDNVSMTMQGFLNYYDACSEGLRAASPALRLGGPGDSFHTPPRSPLSWGLLRHCHDGTNFFTGEAGVRLDYISLHRKGARSSISILEQEKVVAQQIRQLFPKFADTPIYNDEADPLVGWSLPQPWRADVTYAAMVVKVIAQHQNLLLANTTSAFPYALLSNDNAFLSYHPHPFAQRTLTARFQVNNTRPPHVQLLRKPVLTAMGLLALLDEEQLWAEVSQAGTVLDSNHTVGVLASAHRPQGPADAWRAAVLIYASDDTRAHPNRSVAVTLRLRGVPPGPGLVYVTRYLDNGLCSPDGEWRRLGRPVFPTAEQFRRMRAAEDPVAAAPRPLPAGGRLTLRPALRLPSLLLVHVCARPEKPPGQVTRLRALPLTQGQLVLVWSDEHVGSKCLWTYEIQFSQDGKAYTPVSRKPSTFNLFVFSPDTGAVSGSYRVRALDYWARPGPFSDPVPYLEVPVPRGPPSPGNP
On to B1, for which, in assay [1], the “stability of rhIDUA at physiological conditions” value is on record as “unstable”. In assay [2] (GM02845 fibroblasts (Fig 6C)), the “mean IDUA cell activity at 96h” value came to 75.63 nmol/h/mg. For the same molecule, the “mean IDUA cell activity” value in assay [2] (GM02845 fibroblasts, 96 h (Fig 6A)) was found to be 53.37 nmol/h/mg.
